Data from patent publication US20130101595A1 (AbbVie / Abbott, published 2013).

Experiments:
[1] = molecular target: T1, IL-18 peptide PLFEDMTDSDCRDNA (SEQ ID NO: 1) (human); test: told in a figure legend; 2E1 selected by phage display on an IL-18 peptide epitope
T1 peptide: PLFEDMTDSDCRDNA

[2] = molecular target: T2, recombinant human IL-18 (rhIL-18) (human, UniProt Q14116 37-193, biotinylated (D-biotinyl-epsilon-aminocaproic acid NHS ester, 2:1 molar ratio of biotin to rhIL-18) in the BIAcore assay; not said to be biotinylated in the KG-1 assay); test: cell-based or functional assay
[3] = molecular target: T3, IL-18 peptide NRPLFEDMTDSDCR (SEQ ID NO: 36) (human); test: overlapping IL-18 peptide panel
T3 peptide: NRPLFEDMTDSDCR

[4] = molecular target: T2, recombinant human IL-18 (rhIL-18); test: SPR (BIAcore), biotinylated rhIL-18 on streptavidin chip, antibody in solution
Description: Real-time binding interactions between ligand (biotinylated recombinant human IL-18 (rhIL-18) immobilized on a biosensor matrix) and analyte (antibodies in solution) were measured by surface plasmon resonance (SPR) using the BIAcore system (Pharmacia Biosensor, Piscataway, N.J.). The system utilizes the optical properties of SPR to detect alterations in protein concentrations within a dextran biosensor matrix. Proteins are covalently bound to the dextran matrix at known concentrations. Antibodies are injected through the dextran matrix and specific binding between injected antibodies and immobilized ligand results in an increased matrix protein concentration and resultant change in the SPR signal.
Biotinylated rhIL-18 to be immobilized on the matrix via streptavidin was diluted in PBS running buffer (Gibco Cat. No. 14190-144, Gibco BRL, Grand Island, N.Y.) supplemented with 0.05% (BIAcore) surfactant P20 (Pharmacia BR-1000-54, Pharmacia Biosensor, Piscataway, N.J.). To determine the capacity of rhIL-18-specific antibodies to bind immobilized rhIL-18, a binding assay was conducted as follows. Aliquots of biotinylated rhIL-18 (25 nM; 10 μl aliquots) were injected through the streptavidin-coupled dextran matrix at a flow rate of 5 μl/min. Before injection of the protein and immediately afterward, PBS buffer alone flowed through each flow cell. The net difference in signal between baseline and approximately 30 sec. after completion of biotinylated rhIL-18 injection was taken to represent the binding value. Direct rhIL-18-specific antibody binding to immobilized biotinylated rhIL-18 was measured. Antibodies (20 μg/ml) were diluted in PBS running buffer and 25 μl aliquots were injected through the immobilized protein matrices at a flow rate of 5 μl/min. Prior to injection of antibody, and immediately afterwards, PBS buffer alone flowed through each flow cell. The net difference in baseline signal and signal after completion of antibody injection was taken to represent the binding value of the particular sample. Biosensor matrices were regenerated using 100 mM HCl before injection of the next sample.

[5] = molecular target: T2, recombinant human IL-18 (rhIL-18); test: cell-based or functional assay; remark: listed apart in the source
[6] = molecular target: T2, recombinant human IL-18 (rhIL-18); test: SPR (BIAcore), biotinylated rhIL-18, scFv
[7] = molecular target: T2, recombinant human IL-18 (rhIL-18); test: SPR (BIAcore), biotinylated rhIL-18 on streptavidin chip

B1: 2E1 (parent) ScFv (scFv, V domains shown)
VH: QVQLVQSGAEVKKPGASMKVSCKTSGYTFTGYYIHWVRQAHGQGFEWIGRLNPTTGDANFAEKFQGRVALTRDTSISTAYLQLDSLKSDDTAVYYCAGKEGAWGQGTLVTVSS
VL: SSELTQDPAVSVALGQTVRITCQGDSLRHFYPNWYQQKPGQAPVLVIYGKNNRPSGIPDRFSGSGSGNTGSLTITGAQAEDEADYYCGSRDSSGIHVVFGGGTKVTVLG
notes: Tested as single-chain Fv; also called single chain Fv version of antibody 2E1; 2E1 single chain antibody
binding result [1]: binds
IC50 Value, KG-1 cell-based IL-18 neutralization assay (hIFN-gamma) [2]: 33 nM
binding result [3]: binds
kon [4]: 2600 M⁻¹ s⁻¹

B2: 2E1 mutant H53R (scFv, V domains shown)
VH: QVQLVQSGAEVKKPGASMKVSCKTSGYTFTGYYIHWVRQAHGQGFEWIGRLNPRTGDANFAEKFQGRVALTRDTSISTAYLQLDSLKSDDTAVYYCAGKEGAWGQGTLVTVSS
VL: SSELTQDPAVSVALGQTVRITCQGDSLRHFYPNWYQQKPGQAPVLVIYGKNNRPSGIPDRFSGSGSGNTGSLTITGAQAEDEADYYCGSRDSSGIHVVFGGGTKVTVLG
IC50 Value, KG-1 cell-based IL-18 neutralization assay (hIFN-gamma) [2]: 25 nM
koff [4]: 0.00234 s⁻¹

B3: 2E1 (parent) IgG (antibody, V domains shown)
VH: QVQLVQSGAEVKKPGASMKVSCKTSGYTFTGYYIHWVRQAHGQGFEWIGRLNPTTGDANFAEKFQGRVALTRDTSISTAYLQLDSLKSDDTAVYYCAGKEGAWGQGTLVTVSS
VL: SSELTQDPAVSVALGQTVRITCQGDSLRHFYPNWYQQKPGQAPVLVIYGKNNRPSGIPDRFSGSGSGNTGSLTITGAQAEDEADYYCGSRDSSGIHVVFGGGTKVTVLG
IC50 Value, KG-1 cell-based IL-18 neutralization assay (hIFN-gamma) [2]: 0.9 nM

B4: 2E1 mutant L34S (scFv, V domains shown)
VH: QVQLVQSGAEVKKPGASMKVSCKTSGYTFTGYYIHWVRQAHGQGFEWIGRLNPTTGDANFAEKFQGRVALTRDTSISTAYLQLDSLKSDDTAVYYCAGKEGAWGQGTLVTVSS
VL: SSELTQDPAVSVALGQTVRITCQGDSLRHFYPSWYQQKPGQAPVLVIYGKNNRPSGIPDRFSGSGSGNTGSLTITGAQAEDEADYYCGSRDSSGIHVVFGGGTKVTVLG
IC50 Value, KG-1 cell-based IL-18 neutralization assay (hIFN-gamma) [2]: 15 nM
koff [4]: 0.000169 s⁻¹

B5: 2E1 mutant L34S + H53R (2E1RS) (scFv, V domains shown)
VH: QVQLVQSGAEVKKPGASMKVSCKTSGYTFTGYYIHWVRQAHGQGFEWIGRLNPRTGDANFAEKFQGRVALTRDTSISTAYLQLDSLKSDDTAVYYCAGKEGAWGQGTLVTVSS
VL: SSELTQDPAVSVALGQTVRITCQGDSLRHFYPSWYQQKPGQAPVLVIYGKNNRPSGIPDRFSGSGSGNTGSLTITGAQAEDEADYYCGSRDSSGIHVVFGGGTKVTVLG
IC50 Value, KG-1 cell-based IL-18 neutralization assay (hIFN-gamma) [2]: 3 nM
fold improvement over the parent antibody 2E1, KG-1 cell-based assay [5]: > 10 fold
fold improvement over the parent antibody 2E1 [6]: > 10 fold
Kd [4]: 23 nM
koff [4]: 6.82e-05 s⁻¹
kon [4]: 2700 M⁻¹ s⁻¹
fold improvement over the parent antibody 2E1 (BIAcore analysis) [7]: > 10 fold

B6: 2E1 mutant L34S + H53Y (scFv, V domains shown)
VH: QVQLVQSGAEVKKPGASMKVSCKTSGYTFTGYYIHWVRQAHGQGFEWIGRLNPYTGDANFAEKFQGRVALTRDTSISTAYLQLDSLKSDDTAVYYCAGKEGAWGQGTLVTVSS
VL: SSELTQDPAVSVALGQTVRITCQGDSLRHFYPSWYQQKPGQAPVLVIYGKNNRPSGIPDRFSGSGSGNTGSLTITGAQAEDEADYYCGSRDSSGIHVVFGGGTKVTVLG
IC50 Value, KG-1 cell-based IL-18 neutralization assay (hIFN-gamma) [2]: 6.7 nM
koff [4]: 5.28e-05 s⁻¹

B7: 2E1 mutant L34S + H53R + H58Q (scFv, V domains shown)
VH: QVQLVQSGAEVKKPGASMKVSCKTSGYTFTGYYIHWVRQAHGQGFEWIGRLNPRTGDAQFAEKFQGRVALTRDTSISTAYLQLDSLKSDDTAVYYCAGKEGAWGQGTLVTVSS
VL: SSELTQDPAVSVALGQTVRITCQGDSLRHFYPSWYQQKPGQAPVLVIYGKNNRPSGIPDRFSGSGSGNTGSLTITGAQAEDEADYYCGSRDSSGIHVVFGGGTKVTVLG
IC50 Value, KG-1 cell-based IL-18 neutralization assay (hIFN-gamma) [2]: 2.8 nM
koff [4]: 6.18e-05 s⁻¹
